Laboratory results as given in the supplement of paper PMC10567573.

B1: TRAF3IP2 (parent)
chain: PGQPLPGASVRGLHPVQKVILNYP
B2: DYRK1B (parent)
chain: ARKYFERLPGGGWTLRRTKELRKD

Variants of: B1
Experiment: protein stability index of a GFP-peptide fusion (GPS, HEK-293T) (PSI 1-6); higher = more stable
Settings: c terminus: a fixed tail appended
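Further: lentivirally expressed fusions sorted by FACS into six bins by GFP to DsRed ratio, PSI derived from sequencing read proportions per bin multiplied by bin number.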

Protein stability index: each site, then its substitutions
Y23: F 3.45 | R 3.5 | H 3.95 | T 3.43 | P 4.11 | A 3.9 | W 2.52 | Q 4.07 | G 3.71 | C 3.42 | M 3.36 | L 2.71 | V 3.26 | N 3.63 | I 3.19 | S 4.02 | D 4.72 | E 3.86 | K 4.43
P24: M 1.22 | E 3.31 | Q 3.11 | I 1.77 | H 2.38 | Y 1.79 | C 2.69 | F 1.78 | V 1.93 | D 3.68 | G 2.56 | N 3.5 | A 3.16 | K 3.43 | W 2.72 | S 2.7 | L 2.13 | T 2.71 | R 2.65
N22: Y 1.95 | V 1.69

Variants of: B2
Experiment: as above
Settings: c terminus: a fixed tail appended

Protein stability index, by site and new letter:
G10: N 4.09 | T 3.19 | F 2.63 | M 3.27 | I 2.38 | R 3.75 | A 2.93 | S 3.19 | V 3.45 | Y 2.35 | D 4.16 | W 2.97
P9: C 1.91 | N 1.97 | L 2.43 | R 3.22 | E 3.41 | Y 1.9 | H 2.48 | D 4.24 | F 1.87 | T 3.02 | V 2.96 | I 2.13 | K 2.5 | W 2.11 | A 2.83 | Q 3.67
G12: D 4.15 | I 2.03 | K 3.81 | T 2.98 | A 3.06 | E 3.02 | V 2.15 | P 2.96 | S 3.11 | Q 2.95 | M 2.95 | N 2 | Y 2.42 | L 2.57 | F 2.93 | H 3.85
R2: D 4.1 | M 2.79 | Y 3.85 | P 4.56 | T 3.52 | I 2.83 | N 3.55 | A 3.77 | S 4.28 | W 2.38 | F 3.89 | L 2.96 | C 3.03 | K 4.25 | G 3.74 | H 2.73 | E 4.64 | Q 3.33
T18: M 3.88 | D 4.05 | I 3.93 | P 3.57 | Y 2.26 | R 3.72 | L 1.73 | V 3.69
G11: L 3.11 | N 3.17 | V 2.48 | W 2.82 | T 3.46 | S 2.49 | Q 3.34 | I 2.79 | H 2.4 | C 3.26 | P 2.74 | M 2.78 | F 2.89 | K 2.06 | Y 2.73 | D 2.93
Y4: W 2.2 | L 3.14 | D 4.48 | V 3.44 | I 2.87 | G 4.37 | Q 3.34 | F 2.91 | S 3.37 | T 3.14 | A 2.7 | E 3.76 | R 4.29 | M 3.21 | C 3.29 | H 4.07 | N 4.17 | P 4.82
W13: L 3.54 | T 3.36 | M 3.54 | A 3.72 | N 3.95 | K 3.77 | E 4.05 | D 3.59 | C 4.61 | H 2.52 | R 3.3 | I 3.31 | V 3.07 | G 5.15 | F 3.47 | P 4.18
K19: M 2.73 | Y 3.25 | P 3.97 | T 3.41 | S 3.82 | D 4.88 | I 2.87 | W 2.35 | F 3.01 | H 3.08
A1: H 3.66 | R 3.19 | M 2.84 | I 2.47 | V 3.19 | Y 2.27 | T 3.31 | D 4.11 | F 2.44 | N 3.69 | Q 3.7 | L 2.36 | G 3.78 | S 3.9 | E 3.96 | K 4.13 | P 2.89
L15: M 3.25 | V 4.02 | D 2.88 | T 3.35 | Q 3.65 | A 3.78 | R 3.34 | K 3.15 | Y 3.73 | P 2.7 | H 3.85 | I 3.22 | C 3.29 | N 2.95
K3: I 1.92 | T 3.55 | F 1.98 | G 3.51 | L 2.48 | N 2.5 | R 3.9 | P 2.96 | W 2.6 | Y 2.58 | A 3.79 | C 3.24 | V 2.69 | H 3.56 | E 4.13 | Q 3.67 | M 3.12 | S 3.55
E20: K 2.89 | G 4.17 | A 4.5 | I 2.04 | C 3.69 | D 3.65 | L 3.23 | H 1.79 | F 3.57
E6: V 3.35 | N 3.07 | F 3.37 | I 3.38 | Y 3.62 | W 2.67 | A 4.08 | T 3.78 | M 2.36 | Q 2.55 | H 3.34 | P 3.39 | C 3.85 | D 3.69 | K 2.78 | S 3.21 | R 4.86 | L 2.64
F5: E 4.26 | Q 3.71 | K 4.25 | H 3.82 | I 2.91 | D 3.84 | G 3.63 | N 4.02 | A 3.86 | M 2.98 | S 4.35 | V 3.98 | R 3.58 | L 3.83 | Y 4.08
R7: I 2.64 | L 2.77 | Q 4.13 | T 2.99 | Y 3.25 | N 2.83 | E 4.31 | W 2.81 | K 3.52 | V 3.33 | C 2.88 | A 3.3 | H 3.08 | F 2.41 | M 3.67 | S 3.23 | D 3.21 | G 2.84 | P 3.94
L8: F 2.57 | I 3.5 | N 3.4 | P 3.85 | S 5.45 | H 3.32 | Y 4.07 | E 3.71 | M 3.47 | C 3.18 | T 4.18 | R 3.25 | Q 3.38 | D 4.19 | V 3.84 | W 2.13
T14: W 2.72 | K 3.34 | Q 2.9 | S 3.34 | Y 3.01 | V 2.91 | F 2.36 | P 2.52 | R 2.33
R17: P 2.75 | V 2.07 | S 3.35 | G 3.6 | M 2.38 | F 2.58 | D 3.54 | L 2.43 | W 2.35 | Y 3.02 | H 3.2 | C 2.84 | E 3.46 | K 2.69 | N 3.22 | I 2.03 | Q 2.83
R16: K 3.48 | S 3.17 | F 1.69 | V 4.2 | H 2.44 | T 3.5 | Y 1.45 | L 2.79 | G 3.66 | I 2.99 | P 3.73 | M 1.97
